From article PMC9044722

Legend:
[1] = target: His-CRM1 recombinant protein (UniProt O14980); experiment: SPR; without TLNC1; settings: natural protein; chains chain; remark: other sources report otherwise
[2] = target: His-CRM1 recombinant protein (UniProt O14980); experiment: SPR; with TLNC1 (lncRNA); settings: natural protein; chains chain; remark: other sources report otherwise

UniProt O14980, sequence (O14980 whole entry): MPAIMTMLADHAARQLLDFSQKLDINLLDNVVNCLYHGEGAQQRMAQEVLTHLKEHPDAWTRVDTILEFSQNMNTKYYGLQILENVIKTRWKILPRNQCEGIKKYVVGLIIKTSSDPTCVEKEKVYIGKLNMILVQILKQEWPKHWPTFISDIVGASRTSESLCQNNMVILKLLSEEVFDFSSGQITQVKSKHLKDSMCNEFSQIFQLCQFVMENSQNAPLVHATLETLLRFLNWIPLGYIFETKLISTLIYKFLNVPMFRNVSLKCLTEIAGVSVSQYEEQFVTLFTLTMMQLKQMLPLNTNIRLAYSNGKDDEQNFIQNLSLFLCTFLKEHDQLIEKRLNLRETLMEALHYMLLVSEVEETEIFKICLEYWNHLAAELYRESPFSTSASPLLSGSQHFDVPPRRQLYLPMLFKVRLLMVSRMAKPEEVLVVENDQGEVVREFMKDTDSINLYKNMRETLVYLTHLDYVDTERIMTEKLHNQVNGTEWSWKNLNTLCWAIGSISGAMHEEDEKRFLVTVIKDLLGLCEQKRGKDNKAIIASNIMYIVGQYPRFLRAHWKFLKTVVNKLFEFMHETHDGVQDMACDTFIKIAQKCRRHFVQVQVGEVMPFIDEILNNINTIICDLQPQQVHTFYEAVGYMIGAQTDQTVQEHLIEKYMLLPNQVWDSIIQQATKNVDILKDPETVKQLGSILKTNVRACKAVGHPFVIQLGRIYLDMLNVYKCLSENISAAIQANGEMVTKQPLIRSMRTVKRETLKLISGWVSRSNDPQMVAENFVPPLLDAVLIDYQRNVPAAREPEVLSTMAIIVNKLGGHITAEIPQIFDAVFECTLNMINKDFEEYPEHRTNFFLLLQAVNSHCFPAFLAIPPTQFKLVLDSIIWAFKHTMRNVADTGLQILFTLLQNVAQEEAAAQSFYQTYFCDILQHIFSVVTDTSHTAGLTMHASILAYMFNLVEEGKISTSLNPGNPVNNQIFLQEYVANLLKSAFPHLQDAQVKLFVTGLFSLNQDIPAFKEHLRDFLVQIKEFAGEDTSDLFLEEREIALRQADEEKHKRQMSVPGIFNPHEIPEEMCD

- Kd [1]: 181 nM
- Kd [2]: 31.6 nM
Substance: His-TPR recombinant protein, P12270 1-2363
